This note sets out measurements from US20260232827A1 (Zymeworks, published 2026).

Experiment [1] has as its target T1, cynomolgus monkey NaPi2b (cynomolgus monkey, UniProt O95436 1-690 (human entry)).
T1 construct: also called Cyno NaPi2b; Cy NaPi2b
T1 chain: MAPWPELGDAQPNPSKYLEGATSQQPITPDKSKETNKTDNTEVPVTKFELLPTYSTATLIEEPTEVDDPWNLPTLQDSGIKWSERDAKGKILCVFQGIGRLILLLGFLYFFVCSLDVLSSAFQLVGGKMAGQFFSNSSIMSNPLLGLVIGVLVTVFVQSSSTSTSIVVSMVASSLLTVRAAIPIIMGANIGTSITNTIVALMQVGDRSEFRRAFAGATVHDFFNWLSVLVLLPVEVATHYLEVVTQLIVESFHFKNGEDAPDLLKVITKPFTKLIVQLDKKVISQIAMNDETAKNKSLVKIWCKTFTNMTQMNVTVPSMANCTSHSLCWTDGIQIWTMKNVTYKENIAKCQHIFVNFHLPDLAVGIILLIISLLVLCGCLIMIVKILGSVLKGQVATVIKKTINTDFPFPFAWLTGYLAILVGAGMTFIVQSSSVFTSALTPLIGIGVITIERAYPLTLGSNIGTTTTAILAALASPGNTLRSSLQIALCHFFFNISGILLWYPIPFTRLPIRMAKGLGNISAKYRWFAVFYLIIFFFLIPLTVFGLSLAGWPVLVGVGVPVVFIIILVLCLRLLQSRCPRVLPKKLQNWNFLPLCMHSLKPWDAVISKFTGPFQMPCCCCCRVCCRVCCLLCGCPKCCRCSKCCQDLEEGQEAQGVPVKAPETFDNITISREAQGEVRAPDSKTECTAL
As to the kind of experiment: flow cytometry on HEK293-6e cells transfected with cynomolgus monkey NaPi2b, 24 h at 4 C, anti-human IgG Fc AF647. For orientation: Flow cytometry measures light scatter and fluorescence of single cells or particles in a stream.
Procedure: (§1) Following transfection, cells were seeded at 50,000 cells/well in conical-bottom 96-well plates and treated with test antibody or antibody-drug conjugate for 24 hours at 4° C. to prevent internalization. […] Following incubation and washing, fluorescence was detected by flow cytometry on a BD LSRFortessa™ Cell Analyzer (BD Biosciences, Franklin Lake, NJ) with 1,000 minimum events collected per well.

The target in experiment [2] is T2, human sodium-dependent phosphate transporter 2B (NaPi2b) (human, UniProt O95436 1-690).
T2 construct: UniProt ID is given as 095436 [sic]; also called hNaPi2b; Hu NaPi2b
T2 sequence: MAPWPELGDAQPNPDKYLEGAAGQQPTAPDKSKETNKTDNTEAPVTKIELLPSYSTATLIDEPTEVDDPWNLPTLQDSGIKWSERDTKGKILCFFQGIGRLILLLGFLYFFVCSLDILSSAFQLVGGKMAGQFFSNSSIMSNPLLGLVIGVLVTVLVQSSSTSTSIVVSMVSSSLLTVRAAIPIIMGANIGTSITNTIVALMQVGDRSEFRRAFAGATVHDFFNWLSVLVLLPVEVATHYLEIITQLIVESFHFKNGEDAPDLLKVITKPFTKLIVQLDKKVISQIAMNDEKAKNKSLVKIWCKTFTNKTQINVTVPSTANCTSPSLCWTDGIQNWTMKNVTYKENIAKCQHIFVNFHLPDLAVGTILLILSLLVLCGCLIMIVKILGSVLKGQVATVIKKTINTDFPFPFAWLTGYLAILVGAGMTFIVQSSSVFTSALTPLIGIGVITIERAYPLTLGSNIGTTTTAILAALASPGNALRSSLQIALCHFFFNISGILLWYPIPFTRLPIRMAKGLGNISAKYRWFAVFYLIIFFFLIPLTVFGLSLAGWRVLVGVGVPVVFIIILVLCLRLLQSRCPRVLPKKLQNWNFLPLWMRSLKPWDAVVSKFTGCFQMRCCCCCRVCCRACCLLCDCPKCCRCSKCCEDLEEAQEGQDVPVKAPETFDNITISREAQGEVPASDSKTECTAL
As to the kind of experiment: flow cytometry, HEK293-6e cells transfected with human NaPi2b.
Procedure: (§2) Briefly, HEK293-6e cells were transfected for ~24 hours to transiently express human NaPi2b, cynomolgus or mouse NaPi2b, at 1 μg of DNA per 1 million cells. Following transfection, 50,000 cells per well were seeded in V-bottom 96-well plates and incubated with 200 nM of primary antibody for 18-24 hours at 4° C. to prevent internalization. […] Following staining and washing, fluorescence was detected by flow cytometry on BD LSRFortessa™ Cell Analyzer (BD Biosciences, Franklin Lake, NJ) with 10,000 minimum events collected per well. The AF647/APC-A GeoMean (fluorescence signal geometric mean, proportional to anti-Human AF647 binding) was calculated for the live singlet cell population for each primary antibody using FlowJo™ v8 software (BD Biosciences, Franklin Lake, NJ). The Bmax and Kd of each primary antibody were calculated using GraphPad Prism Version 9 (GraphPad Software, San Diego, CA)

Experiment [3] concerns the target T2, human sodium-dependent phosphate …. As to the kind of experiment: flow cytometry on HEK293-6e cells transiently transfected with human NaPi2b, antibody 18-24 h at 4 C, anti-human IgG Fc AF647.
Procedure: as §2
Experiment [4] has the same target. As to the kind of experiment: flow cytometry, HEK293-6e cells transfected with human NaPi2b; apparent Kd.
Procedure: as §2
In experiment [5] the target is T1, cynomolgus monkey NaPi2b. As to the kind of experiment: flow cytometry, HEK293-6e cells transfected with cynomolgus NaPi2b.
Procedure: as §2
The target of experiment [6] is T1, cynomolgus monkey NaPi2b. Kind of experiment: flow cytometry, HEK293-6e cells transfected with cynomolgus NaPi2b; apparent Kd.
Procedure: as §2
For another experiment, the target named is T3, mouse NaPi2b (mouse, UniProt Q9DBP0 1-697).
T3 construct: also called Ms NaPi2b; CL #13476
T3 sequence: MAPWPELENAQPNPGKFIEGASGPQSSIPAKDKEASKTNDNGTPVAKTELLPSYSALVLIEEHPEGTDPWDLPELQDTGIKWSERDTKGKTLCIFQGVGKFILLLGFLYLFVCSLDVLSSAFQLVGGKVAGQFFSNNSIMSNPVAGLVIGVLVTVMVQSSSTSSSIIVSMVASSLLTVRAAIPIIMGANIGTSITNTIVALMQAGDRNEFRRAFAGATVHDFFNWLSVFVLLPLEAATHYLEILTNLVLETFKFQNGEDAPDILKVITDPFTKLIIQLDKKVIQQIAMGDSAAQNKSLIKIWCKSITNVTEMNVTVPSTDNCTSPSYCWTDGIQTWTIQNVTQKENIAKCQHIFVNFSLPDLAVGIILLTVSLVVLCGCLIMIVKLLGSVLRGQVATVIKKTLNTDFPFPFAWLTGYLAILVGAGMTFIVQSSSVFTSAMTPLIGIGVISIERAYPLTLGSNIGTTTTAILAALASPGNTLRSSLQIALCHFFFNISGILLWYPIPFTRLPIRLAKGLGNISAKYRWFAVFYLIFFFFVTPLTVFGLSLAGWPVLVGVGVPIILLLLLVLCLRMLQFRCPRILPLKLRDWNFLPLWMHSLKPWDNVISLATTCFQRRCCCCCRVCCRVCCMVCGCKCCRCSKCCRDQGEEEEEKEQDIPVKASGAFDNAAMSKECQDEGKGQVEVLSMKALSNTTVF
Kind of experiment: flow cytometry on HEK293-6e cells transfected with mouse NaPi2b, 24 h at 4 C, anti-human IgG Fc AF647.

Procedure for mouse NaPi2b: as §1

B1: v18993 (lifastuzumab), reference anti-NaPi2b antibody (antibody, human IgG1, kappa)
heavy 1: GEVQLVESGGGLVQPGGSLRLSCAASGFSFSDFAMSWVRQAPGKGLEWVATIGRVAFHTYYPDSMKGRFTISRDNSKNTLYLQMNSLRAEDTAVYYCARHRGFDVGHFDFWGQGTLVTVSSASTKGPSVFPLAPSSKSTSGGTAALGCLVKDYFPEPVTVSWNSGALTSGVHTFPAVLQSSGLYSLSSVVTVPSSSLGTQTYICNVNHKPSNTKVDKKVEPKSCDKTHTCPPCPAPELLGGPSVFLFPPKPKDTLMISRTPEVTCVVVDVSHEDPEVKFNWYVDGVEVHNAKTKPREEQYNSTYRVVSVLTVLHQDWLNGKEYKCKVSNKALPAPIEKTISKAKGQPREPQVYVYPPSRDELTKNQVSLTCLVKGFYPSDIAVEWESNGQPENNYKTTPPVLDSDGSFALVSKLTVDKSRWQQGNVFSCSVMHEALHNHYTQKSLSLSPG
heavy 2: not shown
light: GDIQMTQSPSSLSASVGDRVTITCRSSETLVHSSGNTYLEWYQQKPGKAPKLLIYRVSNRFSGVPSRFSGSGSGTDFTLTISSLQPEDFATYYCFQGSFNPLTFGQGTKVEIKRTVAAPSVFIFPPSDEQLKSGTASVVCLLNNFYPREAKVQWKVDNALQSGNSQESVTEQDSKDSTYSLSSTLTLSKADYEKHKVYACEVTHQGLSSPVTKSFNRGEC
What is called EC50 (read off the curve) is the concentration giving half of the maximal effect. For B1, the concentration giving a half-maximal response (EC50 (read off the curve)) in the experiment with cynomolgus monkey NaPi2b [1] is about 5 nM; in experiment [3], about 1 nM. Further, the Bmax in experiment [2] came out at 1610; with cynomolgus monkey NaPi2b [5], 1560. Also, the Kd in experiment [4] came to 1.22 nM; with cynomolgus monkey NaPi2b [6] it was 6.27 nM.

B2: v22277 (palivizumab, anti-RSV negative control, heterodimeric Fc) (antibody, human IgG1, kappa)
heavy 1: GQVTLRESGPALVKPTQTLTLTCTFSGFSLSTSGMSVGWIRQPPGKALEWLADIWWDDKKDYNPSLKSRLTISKDTSKNQVVLKVTNMDPADTATYYCARSMITNWYFDVWGAGTTVTVSSASTKGPSVFPLAPSSKSTSGGTAALGCLVKDYFPEPVTVSWNSGALTSGVHTFPAVLQSSGLYSLSSVVTVPSSSLGTQTYICNVNHKPSNTKVDKKVEPKSCDKTHTCPPCPAPELLGGPSVFLFPPKPKDTLMISRTPEVTCVVVDVSHEDPEVKFNWYVDGVEVHNAKTKPREEQYNSTYRVVSVLTVLHQDWLNGKEYKCKVSNKALPAPIEKTISKAKGQPREPQVYVYPPSRDELTKNQVSLTCLVKGFYPSDIAVEWESNGQPENNYKTTPPVLDSDGSFALVSKLTVDKSRWQQGNVFSCSVMHEALHNHYTQKSLSLSPG
heavy 2: not shown
light: GDIQMTQSPSTLSASVGDRVTITCKSQLSVGYMHWYQQKPGKAPKLLIYDTSKLASGVPSRFSGSGSGTEFTLTISSLQPDDFATYYCFQGSGYPFTFGGGTKLEIKRTVAAPSVFIFPPSDEQLKSGTASVVCLLNNFYPREAKVQWKVDNALQSGNSQESVTEQDSKDSTYSLSSTLTLSKADYEKHKVYACEVTHQGLSSPVTKSFNRGEC
notes: also called neg control
Consider B2, for which the binding result (in the experiment with mouse NaPi2b; in experiment [3]) was “no binding (tested: 200 nM)” in each case.
